Laboratory results taken from paper PMC6746150, “Long-Term Local Injection of RAGE-Aptamer Suppresses the Growth of Malignant Melanoma in Nude Mice”.

Molecular target: V-domain RAGE (vRAGE) (human, UniProt Q15109 23-121)
Test: QCM (27 MHz); vRAGE immobilized; N = 3; 27-MHz QCM, vRAGE immobilized on sensor; buffer, salt, pH and temperature not stated (as described previously, ref 16)

V-domain RAGE (vRAGE), sequence (Q15109 23-121): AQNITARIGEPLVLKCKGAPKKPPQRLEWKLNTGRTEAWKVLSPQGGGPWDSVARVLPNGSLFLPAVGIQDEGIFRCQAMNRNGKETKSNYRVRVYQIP

B1: RAGE-aptamer (XNA)
DNA: CCTGATATGGTGTCACCGCCGCCTTAGTATTGGTGTCTAC
modifications: phosphorothioate nucleotides at capital letters: ccTgATATggTgTcAccgccgccTTAgTATTggTgTcTAc (DNA)
B1 was tested, and the Kd was 4.44 ± 0.56 nM.
